Source: EP4741420A1, “PHARMACEUTICAL COMPOSITION FOR PREVENTING OR TREATING OBESITY COMPRISING GLP ANALOGUE AS ACTIVE INGREDIENT” (priority 2023, dated 2025)
Like-named read-outs stand apart in the source and are kept apart here. Ends that are not written are not given here. Peptide text beside a SMILES is read from it. * marks the point of attachment. Palmitoyl = CCCCCCCCCCCCCCCC(=O)*

How the values were obtained:
[1] = in vivo; cited from earlier work
C57BL/6 DIO mice [2] = test: Diet-induced obesity mouse model: blood/serum biochemical tests (Example 3); assay type: in vivo; conditions: after 4 weeks, 0.20 mg/kg/dose (dose from Table 3)
Procedure: Here, the body weight and food intake were measured daily.
In addition, after the experiment was completed, blood and serum samples were obtained from each mouse model, and biochemical tests were performed for blood glucose, total cholesterol, high-density lipoprotein (HDL), low-density lipoprotein (LDL), and triglycerides.

C57BL/6 DIO mice [3] = test: Diet-induced obesity mouse model: body weight and food intake (Example 3); assay type: in vivo; conditions: 4 weeks administration, 0.20 mg/kg/dose
GLP-1R = GLP-1R (Homo sapiens, UniProt P43220); test: GLP-1 activation: cell-based cAMP assay in GLP-1R/CHO cells; conditions: Example 5, relative to Exendin-4
GLP-2 = molecular target: T1, GLP-2 (Homo sapiens, UniProt O95838); test: GLP-2 activity, cell-based cAMP assay (same method as Example 2); conditions: for GLP-2 activity Compared to GLP-2: Example 5, relative to GLP-2; for EC50: Example 5
T1 sequence (O95838 1-553): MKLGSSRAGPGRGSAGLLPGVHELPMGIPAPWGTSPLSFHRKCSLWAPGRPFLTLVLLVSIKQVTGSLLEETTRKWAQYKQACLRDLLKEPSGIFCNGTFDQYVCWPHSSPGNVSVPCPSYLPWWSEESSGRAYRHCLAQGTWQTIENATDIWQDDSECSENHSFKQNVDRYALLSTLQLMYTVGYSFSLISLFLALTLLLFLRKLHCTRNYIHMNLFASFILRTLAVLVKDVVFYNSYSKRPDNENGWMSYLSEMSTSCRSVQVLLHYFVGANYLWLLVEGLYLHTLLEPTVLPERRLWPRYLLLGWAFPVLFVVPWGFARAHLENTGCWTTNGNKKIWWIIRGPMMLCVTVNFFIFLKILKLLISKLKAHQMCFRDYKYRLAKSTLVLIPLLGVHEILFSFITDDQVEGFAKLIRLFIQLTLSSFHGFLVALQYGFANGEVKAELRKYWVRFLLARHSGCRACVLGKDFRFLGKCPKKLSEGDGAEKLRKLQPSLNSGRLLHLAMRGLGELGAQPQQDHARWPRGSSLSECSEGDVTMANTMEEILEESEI

[4] = molecular target: GLP-1R (on GLP-1R/CHO cells, DiscoverX 95-0062C2) (UniProt P43220); test: cell-based or functional assay
[5] = Mouse PK after single subcutaneous administration, LC-MS/MS of plasma; assay type: in vivo, mice
Procedure: Each of the experimental groups and the control was subcutaneously administered once to the dorsal area of a total of 12 mice using a 1 mL syringe equipped with a 26-gauge needle at a dose of 0.2 mg/5 mL/kg. After drug administration, approximately 0.04 to 0.05 mL of blood was collected per individual at the time scheduled for the orbital vein (4 mice were alternately sampled), and the blood collection times were 1, 2, 4, 8, 24 ,32 ,48, 56, 72, 96, and 120 hours. All plasma samples were analyzed using a self-developed LC-MS/MS assay. Pharmacokinetic analysis of blood drugs was performed using non-compartmental analysis, and analysis of pharmacokinetic parameters was performed using Phoenix WinNolin 64 (Version. 8.3.5 340).

[6] = molecular target: T2, GLP-1R (on GLP-1R/CHO cells, DiscoverX 95-0062C2) (UniProt P43220 24-463); test: cell-based or functional assay
[7] = molecular target: T2, GLP-1R (on GLP-1R/CHO cells, DiscoverX …); test: cell-based or functional assay; remark: listed apart in the source
[8] = C57BL/6N male mice, single subcutaneous dose 0.2 mg/5 mL/kg, plasma
[9] = male, C57BL/6N, mouse, in vivo, sc

T2 sequence (P43220 24-463 limits assumed): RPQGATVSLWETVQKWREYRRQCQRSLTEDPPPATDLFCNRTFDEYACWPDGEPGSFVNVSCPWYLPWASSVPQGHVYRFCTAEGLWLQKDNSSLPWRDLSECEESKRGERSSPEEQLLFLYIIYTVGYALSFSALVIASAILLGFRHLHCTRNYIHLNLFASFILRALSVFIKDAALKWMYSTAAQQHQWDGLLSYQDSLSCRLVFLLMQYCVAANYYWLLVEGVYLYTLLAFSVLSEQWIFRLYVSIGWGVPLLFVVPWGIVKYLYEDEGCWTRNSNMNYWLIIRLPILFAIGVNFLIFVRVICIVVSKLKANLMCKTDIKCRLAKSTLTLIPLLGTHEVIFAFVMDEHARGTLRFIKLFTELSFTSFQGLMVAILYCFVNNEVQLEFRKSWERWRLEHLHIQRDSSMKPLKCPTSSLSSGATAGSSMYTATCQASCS
Sequence of GLP-1R (P43220 24-463): as the sequence (P43220 24-463 limits assumed) above
Sequence of GLP-1R (on GLP-1R/CHO cells, DiscoverX 95-0062C2) (UniProt P43220) (P43220 24-463 limits assumed): as above

GLP-1
half-life (t1/2) [1]: < 2 min

CCCCCCCCCCCCCCCC(=O)N[C@@H](CCC(=O)NCCCC[C@H](NC(=O)[C@H](C)NC(=O)[C@H](C)NC(=O)[C@H](CCC(N)=O)NC(=O)CNC(=O)[C@H](CCC(=O)O)NC(=O)[C@H](CC(C)C)NC(=O)[C@H](Cc1ccc(O)cc1)NC(=O)[C@H](CO)NC(=O)[C@H](CO)NC(=O)[C@@H](NC(=O)[C@H](CC(=O)O)NC(=O)[C@H](CO)NC(=O)[C@@H](NC(=O)[C@H](Cc1ccccc1)NC(=O)[C@@H](NC(=O)CNC(=O)[C@H](CCC(=O)O)NC(=O)[C@H](C)NC(=O)[C@@H](N)Cc1c[nH]cn1)[C@@H](C)O)[C@@H](C)O)C(C)C)C(=O)N[C@@H](CCC(=O)O)C(=O)N[C@@H](Cc1ccccc1)C(=O)N[C@H](C(=O)N[C@@H](C)C(=O)N[C@@H](Cc1c[nH]c2ccccc12)C(=O)N[C@@H](CC(C)C)C(=O)N[C@H](C(=O)N[C@@H](CCCNC(=N)N)C(=O)NCC(=O)N[C@@H](CCCNC(=N)N)C(=O)NCC(=O)O)C(C)C)[C@@H](C)CC)C(=O)O [Liraglutide, reference compound]
Blood glucose (C57BL/6 DIO mice [2]): 209.2 ± 26.7 mg/dL | High-density lipoprotein (C57BL/6 DIO mice [2]): 74.7 ± 2.6 mg/dL | Low-density lipoprotein (C57BL/6 DIO mice [2]): 9.7 ± 3.3 mg/dL | Triglyceride (C57BL/6 DIO mice [2]): 9.6 ± 0.8 mg/dL | Cumulative food intake (C57BL/6 DIO mice [3]): 58.5 ± 2.5 g | Weight (C57BL/6 DIO mice [3]): 40.1 ± 4.9 g

CC[C@H](C)[C@H](NC(=O)[C@H](Cc1ccccc1)NC(=O)[C@H](CC(=O)O)NC(=O)[C@H](CCCNC(=N)N)NC(=O)[C@H](C)NC(=O)[C@H](C)NC(=O)[C@H](CC(C)C)NC(=O)[C@H](C)NC(=O)[C@H](CC(=O)O)NC(=O)[C@H](CC(C)C)NC(=O)[C@H](Cc1ccc(O)cc1)NC(=O)[C@@H](NC(=O)[C@H](CO)NC(=O)[C@H](CC(C)C)NC(=O)[C@H](CC(=O)O)NC(=O)[C@H](CO)NC(=O)[C@@H](NC(=O)[C@H](Cc1ccccc1)NC(=O)[C@@H](NC(=O)CNC(=O)[C@H](CCC(=O)O)NC(=O)C(C)(C)NC(=O)[C@@H](N)Cc1c[nH]cn1)[C@@H](C)O)[C@@H](C)O)[C@@H](C)O)C(=O)N[C@@H](CCCCNC(=O)CC[C@H](NC(=O)CCCCCCCCCCCCCCCCC(=O)O)C(=O)O)C(=O)N[C@@H](Cc1ccccc1)C(=O)N[C@@H](C)C(=O)N[C@@H](Cc1c[nH]c2ccccc12)C(=O)N[C@@H](CC(C)C)C(=O)N[C@H](C(=O)N[C@@H](CCC(N)=O)C(=O)N[C@H](C(=O)N[C@@H](CCCCN)C(=O)N[C@H](C(=O)N[C@H](C(=O)N[C@@H](CC(=O)O)C(=O)O)[C@@H](C)O)[C@@H](C)CC)[C@@H](C)O)[C@@H](C)CC [HU020M7] (HELM PEPTIDE1{H.[Aib].E.G.T.F.T.S.D.L.S.T.Y.L.D.A.L.A.A.R.D.F.I.K.F.A.W.L.I.Q.T.K.I.T.D}|PEPTIDE2{[O=C(O)CCCCCCCCCCCCCCCCC(=O)[*:2]].[gGlu]}$PEPTIDE1,PEPTIDE2,24:R3-2:R2$$$V2.0; N-terminus and C-terminus assumed)
GLP-1 activity Compared to GLP-1 (Exendin-4) (GLP-1R): 20.2% | GLP-2 activity Compared to GLP-2 (GLP-2): < 4.0%

Semaglutide (peptide)
GLP-1 activity, Compared to GLP-1 (Exendin-4) [4]: 24.5%

HGEGTFTSDLSTYLDALAAC(+mPEG)DFINWLIQTKITDKK(+C16 FA) (HGEGTFTSDLSTYLDALAAC(mPEG 3.4 kDa)DFINWLIQTKITDKK(C16 fatty acid)) [HU020M6, 3.4kDa maleimidated PEG conjugated to cysteine at position 20, C16 fatty acid]
GLP-2 activity Compared to GLP-2 (GLP-2): ~ 0.02% | EC50 (GLP-2; read-out: GLP-2 activity (EC50)): > 10000 nM | AUClast [5, 8]: 6508.0 ng·h/mL | Cmax [5, 8]: 433.6 ng/mL | T1/2 [5, 8]: 7.0 h | Tmax [5, 8]: 8.0 h

CC[C@H](C)[C@H](NC(=O)[C@H](Cc1ccccc1)NC(=O)[C@H](CC(=O)O)NC(=O)[C@H](CCCNC(=N)N)NC(=O)[C@H](C)NC(=O)[C@H](C)NC(=O)[C@H](CC(C)C)NC(=O)[C@H](C)NC(=O)[C@H](CC(=O)O)NC(=O)[C@H](CC(C)C)NC(=O)[C@H](Cc1ccc(O)cc1)NC(=O)[C@@H](NC(=O)[C@H](CO)NC(=O)[C@H](CC(C)C)NC(=O)[C@H](CC(=O)O)NC(=O)[C@H](CO)NC(=O)[C@@H](NC(=O)[C@H](Cc1ccccc1)NC(=O)[C@@H](NC(=O)CNC(=O)[C@H](CCC(=O)O)NC(=O)CNC(=O)[C@@H](N)Cc1c[nH]cn1)[C@@H](C)O)[C@@H](C)O)[C@@H](C)O)C(=O)N[C@@H](CC(N)=O)C(=O)N[C@@H](Cc1c[nH]c2ccccc12)C(=O)N[C@@H](CC(C)C)C(=O)N[C@H](C(=O)N[C@@H](CCC(N)=O)C(=O)N[C@H](C(=O)N[C@@H](CCCCN)C(=O)N[C@H](C(=O)N[C@H](C(=O)N[C@@H](CC(=O)O)C(=O)N[C@@H](CCCCN)C(=O)N[C@@H](CCCCNC(=O)CC[C@H](NC(=O)CCCCCCCCCCCCCCCCCCC(=O)O)C(=O)O)C(=O)O)[C@@H](C)O)[C@@H](C)CC)[C@@H](C)O)[C@@H](C)CC [HU020M2] (HELM PEPTIDE1{H.G.E.G.T.F.T.S.D.L.S.T.Y.L.D.A.L.A.A.R.D.F.I.N.W.L.I.Q.T.K.I.T.D.K.K}|PEPTIDE2{[O=C(O)CCCCCCCCCCCCCCCCCCC(=O)[*:2]].[gGlu]}$PEPTIDE1,PEPTIDE2,35:R3-2:R2$$$V2.0; N-terminus and C-terminus assumed)
GLP-1 activity Compared to GLP-1 (Exendin-4) (GLP-1R): 1.5% | EC50 (GLP-2): > 10000 nM | GLP-2 activity Compared to GLP-2 (GLP-2): ~ 0.02% | Tmax [5, 9]: 12 h | half-life [5, 9]: 15.9 h

HGEGTFTSDLSTYLDALAARDFINWLIQTKITDKK(Palmitoyl) [HU020K2FA]
EC50, cAMP increase in GLP-1R/CHO cells, average (n=4) [6]: 0.0151 nM | Relative to GLP-1 (Exendin-4) %, cAMP in GLP-1R/CHO cells, average (n=4) [6]: 63.4% | GLP-1 activity (EC50, pM) [7]: 30.1 pM | GLP-1 activity, Compared to GLP-1 (Exendin-4) [7]: 23.6%

HGEGTFTSDLSTYLDALAARDFINWLIQTKITD [HU020]
EC50, cAMP increase in GLP-1R/CHO cells, average (n=4) [6]: 0.0048 nM | Relative to GLP-1 (Exendin-4) %, cAMP in GLP-1R/CHO cells, average (n=4) [6]: 199% | GLP-1 activity (EC50, pM) [7]: 4.15 pM | GLP-1 activity, Compared to GLP-1 (Exendin-4) [7]: 171%
